The target in test [1] is T1, peptide M8 (EEFRIHFT) (human).
T1 peptide: EEFRIHFT
The test can be described thus: solid phase binding (ELISA) with immobilized peptides. A general note: An ELISA detects its analyte on a solid surface through an enzyme-linked reagent.
Method: (§1) Specific binding was calculated by subtraction of binding of mouse IgG to the peptides.

The target in test [2] is T2, scrambled peptide sM7 (KLSLEKQTK).
T2 construct: Scrambled control of M7
T2 peptide: KLSLEKQTK
The test is described as above.
Method: as §1

The target of test [3] is human Mac-1 (αMβ2, CD11b/CD18), native, non-activated (WT) (human, UniProt P11215 17-1152; P05107 23-769). The test can be described thus: western blot of CHO cells over-expressing Mac-1. A general note: A western blot detects proteins with antibodies after separation by electrophoresis.
Test [4] has as its target T3, peptide M7 (EQLKKSKTL) (human).
T3 construct: Immobilised peptide from the human Mac-1 αM I-domain
T3 peptide: EQLKKSKTL
The test can be described thus: solid phase binding assay, immobilized peptide M7.

Consider 1 molecule from patent US20210179717A1 (ALBERT LUDWIGS UNIVERSIT T FREIBURG, published 2021).

B1: anti-M7 (mouse monoclonal antibody, clone RC3, mouse IgG2bκ) (antibody, V domains shown)
VH: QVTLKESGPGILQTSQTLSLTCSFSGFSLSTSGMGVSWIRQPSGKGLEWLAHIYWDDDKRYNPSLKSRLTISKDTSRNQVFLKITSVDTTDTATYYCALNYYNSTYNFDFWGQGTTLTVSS
VL: DIQMTQSPSSLSASLGERVSLTCRASQEISGYLSWHQQKPDGTIKRLLYSTSTLDSGVPKRFSGSRSGSDYSLTISSLESEDFADYYCLQYAISPPTFGGGTKLEIK
notes: Coupled to Alexa Fluor 647 for flow cytometry; also called anti-M7-Alexa 647
Turning to B1, the binding result in test [1] was “no binding”; in test [2], “no binding”; in test [3], “binds”; in test [4], “binds”.
